Test results reported in patent publication US11180767B2, “Protease deficient filamentous fungal cells and methods of use thereof” (GLYKOS FINLAND OY, priority 2012, dated 2021).

How the values were obtained:
MAB01 heavy chain = test: Antibody degradation by Pichia-expressed T. reesei proteases (MAB01); assay type: biochemical
Protocol: The T. reesei aspartic proteases pep3 (tre121133) and pep7 (tre58669) expressed from Pichia were also tested in vitro, by measuring the degradation of the MAB01 antibody and IGF-1. Degradation of MAB01 and IGF-1 by pep3 and pep7 was analyzed by immunoblotting. The aspartic proteases were produced in Pichia supernatants. Pichia supernatants were diluted to 1× concentration, and then mixed with 50 mM sodium citrate buffer, pH 5.5. MAB01 was added to each reaction so that the final concentration would be 0.05 μg IGF-1 was added to each reaction so that the final concentration would be 0.30 μg μl. Ten microliters of each reaction mixture was then sampled and added to 3 μl of Laemmli sample buffer with β-mercaptoethanol. The samples were heated at 95° C. for 5 minutes before being loaded into a 4-15% PAGE gel (BioRad mini-protean TGX precast gel) along with an all blue precision plus prestained molecular weight marker (BioRad). The PAGE gel was run for 30 minutes at 200V. The proteins in the gel were then electrotransferred into a nitrocellulose filter at 100V for 1 hour. The protein containing nitrocellulose filter was then blocked with 5% milk powder in Tris buffered saline with 0.1% tween (TBST) for 1 hour shaking at room temperature. The blocked membranes were then probed with antibody. The MAB01 containing membranes were probed with an anti-IgG heavy chain antibody AP conjugate (Sigma #A3188) diluted 1:30,000 in TBST. The IGF-1 samples were analyzed using a primary anti-IGF-1 antibody (1:2000 in TBST) and anti-IgG AP conjugated secondary antibody (1:5000 in TBST). All antibody incubations were done for 1 hour at room temperature on a shaker. The membranes were then washed with 3 changes of TBST for 20 minutes each on the shaker. The membranes were developed with the BCIP/NBT alkaline phosphatase substrate (Promega #S3771) for up to 5 minutes.
Pichia supernatants containing Trichoderma reesei gap2 were also studied in vitro. The gap2 containing supernatant and MAB01 antibody were diluted into sodium citrate buffers adjusted to pH 4.0, 4.5, 5.0, and 5.5, and incubated for 20 hours at 37° C. Samples were taken at 0 minutes and after 20 hours. MAB01 heavy chain production was analyzed by immunoblotting using an anti-IgG heavy chain (Sigma #A3188) antibody AP conjugate.
(§1) The Trichoderma reesei subtilisin proteases slp5, slp6, and slp7 were overproduced in Pichia supernatants for investigation of their activity against the antibody rituximab and MAB01 heavy chains (FIG. 25). The rituximan mock supernatant was compared to supernatants containing slp5 and slp6 (FIG. 25 A). The MAB01 mock supernatant was compared to supernatants containing slp7 (FIG. 25B). Rituximab and MAB01 were added to the protease-containing Pichia supernatants and incubated overnight at 37° C. Samples were taken and analyzed by immunoblotting with an anti-heavy chain AP conjugated antibody.

rituximab heavy chain = test: Antibody degradation by Pichia-expressed T. reesei proteases (rituximab); assay type: biochemical; conditions: overnight 37°C
Protocol: as §1

[1] = pH 5.5, 37°C, overnight/20 hours

B1: pep3: T. reesei aspartic protease tre121133 expressed from Pichia (protein, listed as Trichoderma reesei)
chain: MEAILQAQAKFRLDRGLQKITAVRNKNYKRHGPKSYVYLLNRFGFEPTKPGPYFQQHRIHQRGLAHPDFKAAVGGRVTRQKVLAKKVKEDGTVDAGGSKTGEVDAEDQQNDSEYLCEVTIGTPGQKLMLDFDTGSSDLWVFSTELSKHLQENHAIFDPKKSSTFKPLKDQTWQISYGDGSSASGTCGSDTVTLGGLSIKNQTIELASKLAPQFAQGTGDGLLGLAWPQINTVQTDGRPTPANTPVANMIQQDDIPSDAQLFTAAFYSERDENAESFYTFGYIDQDLVSASGQEIAWTDVDNSQGFWMFPSTKTTINGKDISQEGNTAIADTGTTLALVSDEVCEALYKAIPGAKYDDNQQGYVFPINTDASSLPELKVSVGNTQFVIQPEDLAFAPADDSNWYGGVQSRGSNPFDILGDVFLKSVYAIFDQGNQRFGAVPKIQAKQNLQPPQ
**Q.** With B1 as the molecule, how does the MAB01 degrading activity (MAB01 heavy chain; pH 4.5, 37°C, overnight) read?
**A.** higher

**Q.** And the MAB01 degrading activity (MAB01 heavy chain; [1])?
**A.** low MAB01 degrading activity

B2: slp6: T. reesei subtilisin protease overproduced in Pichia supernatant (protein, listed as Trichoderma reesei)
chain: MASLRRLALYLGALLPAVLAAPAVNYKLPEAVPNKFIVTLKDGASVDTDSHLTWVKDLHRRSLGKRSTAGVEKTYNIDSWNAYAGEFDEETVKQIKANPDVASVEPDYIMWLSDIVEDKRALTTQTGAPWGLGTVSHRTPGSTSYIYDTSAGSGTFAYVVDSGINIAHQQFGGRASLGYNAAGGDHVDTLGHGTHVSGTIGGSTYGVAKQASLISVKVFQGNSASTSVILDGYNWAVNDIVSRNRASKSAINMSLGGPASSTWATAINAAFNKGVLTIVAAGNGDALGNPQPVSSTSPANVPNAITVAALDINWRTASFTNYGAGVDVFAPGVNILSSWIGSNTATNTISGTSMATPHVVGLALYLQALEGLSTPTAVTNRIKALATTGRVTGSLNGSPNTLIFNGNSA
**Q.** For B2, which “degradation of rituximab heavy chain vs mock supernatant” value (rituximab heavy chain) is on record?
**A.** heavy degradation activity

**Q.** And the “degradation of MAB01 heavy chain vs mock supernatant” value (MAB01 heavy chain; Pichia supernatant, overnight 37°C)?
**A.** light degradation

B3: gap2: T. reesei glutamic protease tre106661 in Pichia supernatant (protein, listed as Trichoderma reesei)
chain: MDAIRARSAARRSNRFQAGSSKNVNGTADVESTNWAGAAITTSGVTEVSGTFTVPRPSVPAGGSSREEYCGAAWVGIDGYSDADLIQTGVLWCVEDGEYLYEAWYEYLPAALVEYSGISVTAGSVVTVTATKTGTNSGVTTLTSGGKTVSHTFSRQNSPLPGTSAEWIVEDFTSGSSLVPFADFGSVTFTGATAVVNGATVTAGGDSPVIIDLEDSRGDILTSTTVSGSTVTVEYE
**Q.** What does the source list for B3?
**A.** proteolytic activity against heavy chain MAB01 (MAB01 heavy chain; pH 4.0, 37°C, 20 hours): maximal proteolytic activity; MAB01 degrading activity (MAB01 heavy chain; [1]): low

B4: pep7: T. reesei aspartic protease tre58669 expressed from Pichia (protein, listed as Trichoderma reesei)
chain: MTLPVPLREHDLPFLKEKRKLPADDIPSGTYTLPIIHARRPKLASRAIEVQVENRSDVSYYAQLNIGTPPQTVYAQIDTGSFELWVNPNCSNVQSADQRFCRAIGFYDPSSSSTADVTSQSARLRYGIGSADVTYVHDTISLPGSGSGSKAMKAVQFGVADTSVDEFSGILGLGAGNGINTEYPNFVDELAAQGVTATKAFSLALGSKAEEEGVIIFGGVDTAKFHGELAHLPIVPADDSPDGVARYWVKMKSISLTPPPPSSSGSTDDNNNKPVAFPQTSMTVFLDSGSTLTLLPPALVRQIASALGSTQTDESGFFVVDCALASQDGTIDFEFDGVTIRVPYAEMIRQVSTLPPHCYLGMMGSTQFALLGDTFLRSAYAVFDLTSNVVHLAPYANCGTNVKSITSTSSLSNLVGTCNDPSKPSSSPSPSQTPSASPSSTATQKA
**Q.** B4 was tested. Which MAB01 degrading activity (MAB01 heavy chain; pH 4.5, 37°C, overnight) did it give?
**A.** minimal antibody degrading activity
